Biological target: amatuximab, chimerized monoclonal IgG1 antibody targeting mesothelin (unlabelled) (human)
Test: ELISA

What does the source list for “CA125 tumor-shed antigen, soluble (sCA125), patient-derived (from UniProt Q8WXI7 1-14507) (natural protein)”?
percent decrease of CD16a binding to amatuximab: 50%; percent reduction of amatuximab binding to CD32a: 29%
